Assay [1] concerns the target T1, CD117 protein (SinoBiological, cat #11996-H08H) (UniProt P10721-2 26-516).
T1 construct: Bought reagent
In words: ELISA, CD117 protein coated.

In assay [2] the target is T1, CD117 protein (SinoBiological, cat …). In words: ELISA on plate-coated CD117 protein, detection with anti-human IgG (Fc specific)-peroxidase, OD at 450 nm. Background: An ELISA detects its analyte on a solid surface through an enzyme-linked reagent.
For assay [3], the target named is T2, Human CD16a (V176) protein (NovoProtein, cat #C441) (human, UniProt P08637 17-208).
T2 construct: also called CD16a receptor
T2 sequence (P08637 17-208 F176V limits assumed): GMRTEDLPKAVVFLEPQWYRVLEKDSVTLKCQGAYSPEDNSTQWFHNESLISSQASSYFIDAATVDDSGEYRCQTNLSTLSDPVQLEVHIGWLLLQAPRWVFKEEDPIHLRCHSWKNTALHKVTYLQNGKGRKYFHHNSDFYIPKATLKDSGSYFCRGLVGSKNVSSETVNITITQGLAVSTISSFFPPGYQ
In words: BLI (Octet Red 96e), CD16a (V176) on HIS1K sensors, antibody in solution, 1:1 global fit.

The target of assay [4] is T3, Rhesus Macaque CD117 on CD34-enriched bone marrow hematopoietic stem cells (Rhesus Macaque, UniProt F6V858 26-976).
T3 construct: whole, on cells; also called CD117 of Rhesus Macaque; Rhesus Macaque CD117-positive hematopoietic stem cells
In words: flow cytometry on Rhesus Macaque CD34-enriched bone marrow cells gated on CD34+ CD117+, R-Phycoerythrin goat anti-human F(ab')2 detection. A general note: A flow cytometer gives signals particle by particle.

Experimental findings from patent US20260217820A1 (ERASMUS UNIVERSITY MEDICAL CENTER ROTTERDAM, published 2026) are described below.

The EC50 is the concentration needed to bring the measured effect to its halfway point. For orientation: EC50 (read off the curve) means the concentration giving half of the maximal effect. High values mean a need for much substance, low ones an effect from little substance. Usually Kd stands for the constant that tells how readily two partners part at equilibrium. A high value points to a looser complex. The koff is a measure of how fast the partners let go of each other. For orientation: kon means the rate constant with which the complex forms. Low readings indicate slow association, high ones fast association.

T1 sequence (P10721 other isoform, or with tags, fused parts or gaps H08H H08H limits assumed): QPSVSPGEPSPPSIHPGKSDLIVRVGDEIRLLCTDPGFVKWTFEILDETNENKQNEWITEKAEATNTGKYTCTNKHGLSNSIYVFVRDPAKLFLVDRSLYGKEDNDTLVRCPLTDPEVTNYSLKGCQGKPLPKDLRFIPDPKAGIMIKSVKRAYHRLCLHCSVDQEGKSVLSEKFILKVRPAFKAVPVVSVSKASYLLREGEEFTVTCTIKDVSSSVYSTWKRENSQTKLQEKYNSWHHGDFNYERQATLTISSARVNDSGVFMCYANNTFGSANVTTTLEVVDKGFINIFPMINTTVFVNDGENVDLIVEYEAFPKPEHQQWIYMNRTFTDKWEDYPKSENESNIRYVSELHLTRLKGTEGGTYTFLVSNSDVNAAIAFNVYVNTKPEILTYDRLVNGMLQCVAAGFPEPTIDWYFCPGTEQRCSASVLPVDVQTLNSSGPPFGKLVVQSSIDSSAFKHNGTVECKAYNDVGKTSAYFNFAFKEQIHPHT

B1: recombinant monoclonal antibody PR004382 (antibody, human IgG1, kappa)
heavy: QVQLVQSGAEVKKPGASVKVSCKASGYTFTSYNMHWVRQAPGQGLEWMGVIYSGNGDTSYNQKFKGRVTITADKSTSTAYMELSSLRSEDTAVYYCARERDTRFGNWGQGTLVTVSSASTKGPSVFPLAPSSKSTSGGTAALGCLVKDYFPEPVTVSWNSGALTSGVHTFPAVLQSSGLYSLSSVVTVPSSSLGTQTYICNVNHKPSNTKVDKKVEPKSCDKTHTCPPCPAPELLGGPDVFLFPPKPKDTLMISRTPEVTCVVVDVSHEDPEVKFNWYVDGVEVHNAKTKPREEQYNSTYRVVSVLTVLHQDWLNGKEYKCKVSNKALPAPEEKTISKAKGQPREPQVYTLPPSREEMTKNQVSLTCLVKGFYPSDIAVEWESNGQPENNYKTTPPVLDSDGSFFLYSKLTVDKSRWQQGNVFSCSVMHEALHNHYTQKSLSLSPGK
light: DIVMTQSPDSLAVSLGERATINCRASESVDIYGNSFMHWYQQKPGQPPKLLIYLASNLESGVPDRFSGSGSGTDFTLTISSLQAEDVAVYYCQQNNEDPYTFGGGTKVEIKRTVAAPSVFIFPPSDEQLKSGTASVVCLLNNFYPREAKVQWKVDNALQSGNSQESVTEQDSKDSTYSLSSTLTLSKADYEKHKVYACEVTHQGLSSPVTKSFNRGEC
notes: compared with a human IgG1 isotype control; also called PR004382 anti-CD117 antibody; copies: 2 + 2
In the case of B1, the EC50 in assay [1] was determined as 15.5 pM. The concentration for a half-maximal effect (EC50 (read off the curve)) in assay [2] was roughly 100 pM. Besides, in assay [3], the Kd was 27200 pM, the off-rate (koff) came out at 0.00933 s⁻¹ and the kon amounted to 343000 M⁻¹ s⁻¹.

B2: PR001310 anti-HELxCD3 control Bispecific T cell engager (bispecific antibody)
chain: DIVLTQSPAIMSASPGEKVTMTCSASSSVNYMYWYQQKSGTSPKRWIYDTSKLASGVPVRFSGSGSGTSYSLTISSMETEDAAEYYCQQWGRNPTFGGGTKLEIKRTVAAPSVFIFPPSDEQLKSGTASVVCLLNNFYPREAKVQWKVDNALQSGNSQESVTEQDSKDSTYSLSSTLTLSKADYEKHKVYACEVTHQGLSSPVTKSFNRGECEVQLVESGGGLVQPGGSLKLSCAASGFTFNTYAMNWVRQASGKGLEWVGRIRSKYNNYATYYADSVKDRFTISRDDSKSTLYLQMNSLKTEDTAVYYCVRHGNFGNSYVSWFAYWGQGTLVTVSSASTKGPSVFPLAPSSKSTSGGTAALGCLVKDYFPEPVTVSWNSGALTSGVHTFPAVLQSSGLYSLSSVVTVPSSSLGTQTYICNVNHKPSNTKVDKKVEPKSC
heavy: EVQLQQSGAELMKPGASVKISCKASGYTFSDYWIEWVKQRPGHGLEWIGEILPGSGSTNYHERFKGKATFTADTSSSTAYMQLNSLTSEDSGVYYCLHGNYDFDGWGQGTTLTVSSASTKGPSVFPLAPSSKSTSGGTAALGCLVKDYFPEPVTVSWNSGALTSGVHTFPAVLQSSGLYSLSSVVTVPSSSLGTQTYICNVNHKPSNTKVDKKVEPKSC
light: QAVVTQEPSLTVSPGGTVTLTCRSSTGAVTTSNYANWVQQKPGQAPRGLIGGTNKRAPWTPARFSGSLLGDKAALTLLGAQPEDEAEYFCALWYSNLWVFGGGTKLTVLGQPKAAPSVTLFPPSSEELQANKATLVCLISDFYPGAVTVAWKADSSPVKAGVETTTPSKQSNNKYAASSYLSLTPEQWKSHRSYSCQVTHEGSTVEKTVAPTECS
notes: Control engager; HEL = hen egg lysozyme; Same CD3 arm as PR004384; also called control anti-HELxCD3 Bispecific T cell engager
Regarding B2, in assay [4], the binding result is listed as “no binding”.
